Data on 2 substances can be found in patent publication US6159704.

In test [1] the target is 32P-labeled synthetic peptide LRRASVA (Kemptide Val^6, Ala^7) (Artificial Sequence).
For test [2], the target named is PP2Ac of COS-1 cells (endogenous PP2A catalytic subunit / PP2A activity). The experiment in a line: 12CA5 immunoprecipitation from transfected COS-1 cells, PP2A activity on 32P-LRRASVA.
For test [3] the target is unchanged. The experiment in a line: 12CA5 immunoprecipitation from transfected COS-1 cells, PP2A activity in the precipitate.

As for “PP2Ac of COS-1 cells (endogenous PP2A catalytic subunit / PP2A activity) (enzyme)”, the PP2A activity with 32P-labeled synthetic peptide (LRRASVA) as substrate, with and without 10 nM okadaic acid in test [1] was 2.4 U/mg.

As to “HA-tagged human PR65α expressed in COS-1 cells (from UniProt P30153)”, in test [2], the % immunoprecipitated (of PP2A activity) worked out at 3.7% and the PP2A activity in immunoprecipitates (mU) was determined as 17 mU. This substance gave a fold PP2A activity against eRF1 immunoprecipitates in test [3] of 10 fold.
